Laboratory results reported in article PMC10689251.

Target: RuBisCO large subunit CbbL (Cyanobium sp. PCC 7001)
Experiment: cryo-EM structure; single-particle analysis of RuBisCO particles spilled from broken native α-carboxysomes of Cyanobium sp. PCC 7001 (sample ~1 mg/mL in TEMB buffer, graphene oxide coated grids); refined with D4 symmetry (2.87 Å) and without symmetry (3.79 Å); density for RuBP and magnesium in the active site

stoichiometry N: 8
Substance: RuBisCO large subunit CbbL (natural protein)
